Key:
[1] = target: His168 (UniProt position 168, …); assay: NMR; conditions: 50 mM NaCl; 20 mM Tris acetate; free Thr171-phosphorylated peptide, no RNA
[2] = target: His161 (UniProt position 161, …); assay: NMR; conditions: 50 mM NaCl; 20 mM Tris acetate; free Thr171-phosphorylated peptide, no RNA

B1: Stem-loop binding protein (SLBP) 20-residue phosphopeptide, WT20mer (His161-Arg180, phosphoThr171) (Homo sapiens) (peptide)
chain: HLRQPGIHPKTPNKFKKYSR
pKa [1]: 5.6 | pKa [2]: 6.4

From paper PMC3328597
